Experimental data taken from patent US20240383964A1, “De Novo Designed alpha(5) beta(1) Integrin selective minibinders” (UNIVERSITY OF WASHINGTON, priority 2023, published 2024).

Experiments:
[1] = molecular target: T1, active form of integrin α5β1 (Homo sapiens, UniProt P05556+P08648); assay: Colocalization of minibinder conjugated to GFP-tagged protein sheets with integrin staining; format: cell-based; settings: α5 and active β1 specific antibodies
T1 construct: endogenous in cells
Method: (§1) FIG. 2. (A) BLI binding affinity traces for minibinder or ^8RGD^10/GGG mutant against α5β1 in indicated buffers. Minibinder affinity to integrin α5β1 is dependent on metal ion presence and RGD motif. All affinity data was collected by Octet™ R8 and binding affinity was estimated by the Octet™ ForteBio software package. (B) Minibinder has no detectable affinity in presence of 500 nM or 1000 nM integrin αvβ1, αvβ3, αvβ6, αvβ8 and α8β1. (C) Cell surface titration of minibinder 4584_V5.3 and 00179_v4.1 against K562 cells wild type. […] Integrin α5 subunit and β1 subunit were stained with integrin α5 and active integrin β1 subunit specific antibody, respectively. (E) Quantification of (D). Quantification was counted as a percentage of mb-sheets that colocalized with staining of a5 and b1, a5 only, b1 only, or none; 30-35 sheets were counted in each biological repeat. […] Vascular stability was analyzed at 12-h timepoints. […] (G) Quantification of (F). The number of nodes, meshes, and tubes from images in (F) were quantified using an angiogenesis analyzer plug-in in ImageJ. Statistical significance of each were analyzed using One-way Anova Bonferroni's multiple comparison test. […] The wound area of T0 and T12 time points were quantified using imageJ and level of cell migration were calculated using this equation (AreaT0-T12)/AreaT0, all samples were normalized to PBS as fold change. […]

integrin α5β1 = integrin α5β1 (Homo sapiens, UniProt P05556+P08648); assay: Biolayer interferometry (BLI) binding to integrin α5β1; settings: pH 5 supplemented with 1 mM MgCl2, 1 mM CaCl2
Source text: The polypeptides of the disclosure selectively bind to α5β1 integrin with antagonistic activity. The term “antagonistic activity” is used herein to describe the activity of a polypeptide that, upon binding to α5β1 integrin, inactivates the integrin complex or inhibits processes normally initiated by the integrin. In some embodiments, the polypeptide or fusion protein of any embodiment or combination of embodiments herein, binds integrin α5β1 with an affinity of between about 0.025 nm and about 50 μm, or between about 0.05 nm and about 8 μm, or between about 0.05 nm and about 8 μm, or between about 0.05 nm and about 2.5 μm, or between about 0.05 nm and about 700 nm, or between about 0.05 nm and about 0.5 nm. The binding affinity can be measured, for example, using biolayer interferometry (BLI) or yeast display. […] In one such assay to measure the binding affinity to a51integrin, the polypeptides are cloned with an N-terminus avi-tag and biotinylated chemically. Prior to measurements, streptavidin-coated biosensors are first hydrated in assay buffer for 10 minutes. […]
15 constructs of identified initial hits were expressed and purified—their binding affinities range from nanomolar to micromolar (data not shown). […] The binding affinity of each variant was calculated as described in Cao et al, 2022. […]

[2] = molecular target: T2, α5β1 on K562 cells wild type (Homo sapiens, UniProt P05556+P08648); assay: Cell surface titration of minibinder on wild type cells; format: cell-based; settings: α5β1 the only RGD binding integrin expressed
T2 construct: endogenous in cells; host or cells: K562 wild type (printed 'A562')
Method: as §1

HUVECs = assay: Scratch-wound cell migration assay; format: cell-based, human; settings: 20 nM, 12 hours, compared to PBS control
Method: FIG. 2. (A) BLI binding affinity traces for minibinder or ^8RGD^10/GGG mutant against α5β1 in indicated buffers. Minibinder affinity to integrin α5β1 is dependent on metal ion presence and RGD motif. All affinity data was collected by Octet™ R8 and binding affinity was estimated by the Octet™ ForteBio software package. (B) Minibinder has no detectable affinity in presence of 500 nM or 1000 nM integrin αvβ1, αvβ3, αvβ6, αvβ8 and α8β1. (C) Cell surface titration of minibinder 4584_V5.3 and 00179_v4.1 against K562 cells wild type. […] Integrin α5 subunit and β1 subunit were stained with integrin α5 and active integrin β1 subunit specific antibody, respectively. (E) Quantification of (D). Quantification was counted as a percentage of mb-sheets that colocalized with staining of a5 and b1, a5 only, b1 only, or none; 30-35 sheets were counted in each biological repeat. […] Minibinders were added to HUVEC cells at 0, 0.1, 1, 10, and 100 nM. Vascular stability was analyzed at 12-h timepoints. 20 images were taken in each well at random locations. The scale bar is 100 μm. (G) Quantification of (F). The number of nodes, meshes, and tubes from images in (F) were quantified using an angiogenesis analyzer plug-in in ImageJ. Statistical significance of each were analyzed using One-way Anova Bonferroni's multiple comparison test. […] The wound area of T0 and T12 time points were quantified using imageJ and level of cell migration were calculated using this equation (AreaT0-T12)/AreaT0, all samples were normalized to PBS as fold change.
The inhibitory effect of 20 nM soluble 00179_v4.1 on cell migration was assessed using the scratch-wound assay. HUVECs were seeded with either 00179_v4.1 or PBS (used as a […] control) for 12 hours before capturing images for analysis.

T2 sequence (P08648 42-894 limits assumed): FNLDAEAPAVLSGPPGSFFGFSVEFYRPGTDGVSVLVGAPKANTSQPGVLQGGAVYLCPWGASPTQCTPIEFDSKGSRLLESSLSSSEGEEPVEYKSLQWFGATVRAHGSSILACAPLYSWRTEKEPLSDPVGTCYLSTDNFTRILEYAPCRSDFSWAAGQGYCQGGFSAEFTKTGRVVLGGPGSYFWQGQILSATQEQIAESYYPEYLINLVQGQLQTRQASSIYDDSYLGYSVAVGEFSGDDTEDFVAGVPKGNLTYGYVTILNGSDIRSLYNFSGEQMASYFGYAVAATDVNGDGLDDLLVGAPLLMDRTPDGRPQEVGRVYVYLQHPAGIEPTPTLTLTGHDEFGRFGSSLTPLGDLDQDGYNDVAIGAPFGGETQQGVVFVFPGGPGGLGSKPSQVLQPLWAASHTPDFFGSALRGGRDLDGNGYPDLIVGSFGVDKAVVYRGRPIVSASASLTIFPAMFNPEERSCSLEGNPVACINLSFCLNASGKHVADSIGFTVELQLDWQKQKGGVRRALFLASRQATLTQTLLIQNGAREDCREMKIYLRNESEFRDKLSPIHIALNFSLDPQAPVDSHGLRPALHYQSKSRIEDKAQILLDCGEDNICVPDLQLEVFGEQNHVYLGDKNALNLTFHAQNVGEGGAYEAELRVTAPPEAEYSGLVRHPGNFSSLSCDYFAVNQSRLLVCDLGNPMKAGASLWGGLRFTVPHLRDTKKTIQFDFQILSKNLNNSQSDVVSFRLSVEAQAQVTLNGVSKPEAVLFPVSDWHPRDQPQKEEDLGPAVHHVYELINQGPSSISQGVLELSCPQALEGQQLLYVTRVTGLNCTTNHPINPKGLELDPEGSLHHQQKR
T2 sequence (P08648 895-1049 partner limits assumed): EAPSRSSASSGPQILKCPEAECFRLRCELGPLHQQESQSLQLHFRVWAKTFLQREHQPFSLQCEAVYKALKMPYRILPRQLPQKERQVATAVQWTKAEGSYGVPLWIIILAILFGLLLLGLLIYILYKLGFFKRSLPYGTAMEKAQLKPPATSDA
T2 sequence (P05556 21-798): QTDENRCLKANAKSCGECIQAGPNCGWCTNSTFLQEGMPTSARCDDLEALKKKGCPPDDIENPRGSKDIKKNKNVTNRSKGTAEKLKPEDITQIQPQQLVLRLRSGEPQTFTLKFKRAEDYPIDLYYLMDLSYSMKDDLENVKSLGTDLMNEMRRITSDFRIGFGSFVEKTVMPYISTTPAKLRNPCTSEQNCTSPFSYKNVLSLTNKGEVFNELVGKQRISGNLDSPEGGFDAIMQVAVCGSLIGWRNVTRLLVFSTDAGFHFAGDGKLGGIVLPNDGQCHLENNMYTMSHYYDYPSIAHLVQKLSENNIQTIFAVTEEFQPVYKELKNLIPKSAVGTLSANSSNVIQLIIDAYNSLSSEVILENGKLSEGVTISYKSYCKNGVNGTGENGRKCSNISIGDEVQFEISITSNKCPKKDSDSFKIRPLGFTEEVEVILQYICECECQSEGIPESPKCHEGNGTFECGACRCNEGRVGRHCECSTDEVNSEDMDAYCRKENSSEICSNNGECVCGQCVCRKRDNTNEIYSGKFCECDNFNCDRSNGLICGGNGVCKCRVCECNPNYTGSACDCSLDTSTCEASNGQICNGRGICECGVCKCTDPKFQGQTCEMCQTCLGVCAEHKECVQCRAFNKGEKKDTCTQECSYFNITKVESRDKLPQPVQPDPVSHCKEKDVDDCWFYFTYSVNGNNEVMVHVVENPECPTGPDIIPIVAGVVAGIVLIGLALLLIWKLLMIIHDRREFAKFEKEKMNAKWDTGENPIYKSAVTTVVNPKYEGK
T1 sequence (P08648 42-894 limits assumed): as the sequence (P08648 42-894 limits assumed) above
T1 sequence (P08648 895-1049 partner limits assumed): as the sequence (P08648 895-1049 partner limits assumed) above
T1 sequence (P05556 21-798): as the sequence (P05556 21-798) above
integrin α5β1, sequence (P08648 42-894 limits assumed): as the sequence (P08648 42-894 limits assumed) above
integrin α5β1, sequence (P08648 895-995 partner limits assumed): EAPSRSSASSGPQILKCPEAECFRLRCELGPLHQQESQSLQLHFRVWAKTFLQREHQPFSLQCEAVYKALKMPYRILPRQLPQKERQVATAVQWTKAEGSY
integrin α5β1, sequence (P05556 21-728 limits assumed): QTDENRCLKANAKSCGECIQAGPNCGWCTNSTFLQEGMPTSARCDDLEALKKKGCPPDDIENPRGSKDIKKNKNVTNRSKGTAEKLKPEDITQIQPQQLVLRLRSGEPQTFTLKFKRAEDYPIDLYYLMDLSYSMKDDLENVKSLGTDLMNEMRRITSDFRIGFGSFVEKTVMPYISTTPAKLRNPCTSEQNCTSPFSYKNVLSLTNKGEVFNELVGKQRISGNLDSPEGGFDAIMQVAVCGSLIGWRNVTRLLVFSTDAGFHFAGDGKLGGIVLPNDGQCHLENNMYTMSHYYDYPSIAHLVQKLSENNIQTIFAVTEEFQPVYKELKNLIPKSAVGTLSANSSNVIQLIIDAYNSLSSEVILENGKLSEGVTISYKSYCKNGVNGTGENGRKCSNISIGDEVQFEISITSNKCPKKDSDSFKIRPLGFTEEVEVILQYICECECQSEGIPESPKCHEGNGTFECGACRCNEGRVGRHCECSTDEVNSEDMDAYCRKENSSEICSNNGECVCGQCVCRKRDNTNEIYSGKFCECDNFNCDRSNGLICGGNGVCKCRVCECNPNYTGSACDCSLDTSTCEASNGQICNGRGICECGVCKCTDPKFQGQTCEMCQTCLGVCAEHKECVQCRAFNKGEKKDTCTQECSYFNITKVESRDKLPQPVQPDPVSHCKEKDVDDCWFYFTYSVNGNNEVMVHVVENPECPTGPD

B1: 00179_v4.1: highest affinity α5β1 minibinder, sequence SELIIHGRGDFPSSELERLRERFERLGIKVRVDHKVLTLIGISEEEAERLARELRKRGIWVEIRK (protein)
chain: SELIIHGRGDFPSSELERLRERFERLGIKVRVDHKVLTLIGISEEEAERLARELRKRGIWVEIRK
localization of minibinder sheet with integrin α5 and active β1 staining [1]: colocalized with active form of integrin α5β1
binding to α5β1 at pH 5 (integrin α5β1): still can bind
binding affinity to α5β1 on the cell surface [2]: Nanomolar binding ability
cell migration (HUVECs): significant reduction in cell migration
